To fix the notation:
B1: GILT (192-205) (peptide)
peptide: GDRGMQLMHANAQR
notes: Found as eluted natural peptide and tested as synthetic peptide; also called Interferon-gamma-inducible lysosomal thiol reductase (192-205)
B2: PSMD8 (218-233) (peptide)
peptide: GPNNYYSFASQQQKPE
notes: Found as eluted natural peptide and tested as synthetic peptide
B3: CYRB (359-375) (peptide)
peptide: ETMKMRYEHIDHTFEIQ
notes: as for B2
B4: HPX (351-365) (peptide)
peptide: TPHGIILDSVDAAFI
notes: Synthetic peptide in the in vitro assay; also called Hemopexin (351-365)
B5: IL-1R (79-94) (peptide)
peptide: EKLWFVPAKVEDSGHY
notes: Found as eluted natural peptide and tested as synthetic peptide; also called Interleukin-1 receptor (79-94)

The target in the first test is HLA-DRB1*0401 (Homo sapiens, UniProt P01903+P01911, A100K/A169T/F76Y/I96L/K127E/L162R/M171V/N62H/P40V/Q125Y/R42H/S133A/S149N/S66Y/V115G/V209L/W38E).
Test: not given
Conditions: reference peptides, literature (Table 1 footnote h); cited from earlier work.
With “M. tuberculosis Hsp65 (3-13) (KTIAYDEEARR; UniProt P9WPE7 3-13, looked up, fragment)”, the “HLA-DRB1*0401 binder” value is given as “weak HLA-DRB1*0401 binder”.

Another test has as its target T1, HLA-DR4 molecules (HLA-DRB1*0401), purified, detergent-solubilized (human).
T1 construct: mature; The text says HLA-DR4
As to the kind of experiment: in vitro competition binding assay: purified HLA-DR4, biotinylated HA(307-319) reporter, synthetic competitor peptide.
Settings: not given
With B1, the binding result is “binds”. For GSREIKSQQSEVTR (Synthetic peptide in the in vitro assay) [SH3BGRL3 (13-26)], the binding result is on record as “binds”. B2: the binding result is on record as “binds”. As for B3, the binding result is recorded as “binds”.

With NVVFVIDKSGSMSG (Synthetic peptide in the in vitro assay) [ITIH4 (274-287)], the binding result was “binds”. Same read-out and setting: as for GPHDVHVQIETSPPARN (Synthetic peptide in the in vitro assay) [Fig1 (293-309)], the entry is “binds”; as for B4, “binds”; as for B5, “binds”.

The values above are taken from patent publication US20080193457A1, “Ra Antigenic Peptides” (priority 2003, published 2008).
